How the values were obtained:
[1] = molecular target: CD47 on the surface of tumor cells (human) (UniProt Q08722); test: FACS, SKOV-3 tumor cells, control antibody, 100 nM
[2] = molecular target: CD47 on the surface of human red blood cells (human) (UniProt Q08722); test: FACS, human red blood cells, control antibody, 1000 nM

Binding to tumor cells (MFI) [1]: 4640 MFI | Binding to human red blood cells (MFI) [2]: 797 MFI
Substance: human IgG4 (antibody)
